The test has as its target Vibrio cholerae chromosome 2 ParA (ParA2vc) (Vibrio cholerae). The test can be described thus: negative-stain EM; ParA2vc 1 mg/ml with or without 3.5 mM nucleotide and MgCl2, 30 °C 15 min, diluted 1/100 in 100 mM NaCl, 50 mM Tris pH 7.5; no DNA; 2D classification of particles; monomers to dimer.

Stoichiometry N data for one substance are collected here from publication PMC8397727, “The structure of the bacterial DNA segregation ATPase filament reveals the conformational plasticity of ParA upon DNA binding” (Nature Communications, 2021).

What is called stoichiometry N is a count of units in the complex or per binding partner.

Turning to “Vibrio cholerae chromosome 2 ParA (ParA2vc)”, the stoichiometry N stood at 2.
